In paper PMC10439028, “SGLT5 is the renal transporter for 1,5-anhydroglucitol, a major player in two rare forms of neutropenia” (Cellular and Molecular Life Sciences: CMLS, 2023):

Assays:
[1] = substrate: OC[C@H]1OC(O)[C@@H](O)[C@@H](O)[C@@H]1O; test: Radioactive uptake assay (saturation kinetics) in HEK293T cells expressing mouse SGLT4; assay type: cell-based; conditions: other: 30 min, Supplementary Fig. 4; pH 7.4; 37.0 °C
Experimental: (§1) For a typical transporter experiment we proceeded as follows. […] To minimize cell loss during the various washing steps in the radioactive uptake experiments, the wells where the cells were seeded were previously coated with poly- D-lysine, which improved their adhesion to the plastic surface of the wells. For this, each well of the 24-well plates was treated with 200 µl of a 0.01% poly-L-lysine solution for 10 min, washed 3 times with 1 ml of sterilized water and left to dry for 2 h. Only then could the 24-well plates be seeded with the appropriate cell lines and cultured overnight at 37 °C in 5% CO2.
On day two, the radioactive uptake assay could be performed. […]
(§2) Once the uptake medium was added to the cells, the plates were incubated at 37 °C in 5% CO2 during the required time. […] In each experiment, the transport activities were calculated after subtracting a “blank” value, corresponding to the radioactivity in the appropriate control cells (HEK293T cells that were stably or transiently transfected with one of the parent plasmids pEF6/MycHisA, pEF6HisB, pUB82 or pUB83 with no inserted cDNA) that were analyzed in parallel. […]
Supplementary Fig. 4: Transport activities for 1,5-anhydroglucitol and mannose of recombinant mouse SGLT4 and SGLT5 isoforms measured in HEK293T cells. […]

[2] = substrate: OC[C@H]1OC(O)[C@@H](O)[C@@H](O)[C@@H]1O; test: Radioactive uptake assay (saturation kinetics) in HEK293T cells stably overexpressing human SGLT5-iso2; assay type: cell-based; conditions: other: transport of the labelled substrate, Michaelis-Menten fit, Fig. 2B; pH 7.4; 37.0 °C
From the text: (§3) This assay was used to study (1) the transport of 1,5-AG or mannose by the HEK293T model cell lines that stably overexpressed the various transporters or by the transiently transfected HEK293T cells using JetPEI® as a transfection agent prepared as described above and (2) the substrate specificity of each transporter.
as §1
(§4) On day two, the radioactive uptake assay could be performed. The cell culture media was removed by aspiration and cells were incubated for 20 min at 37 °C and 5% CO2 with a basal medium (10 mM HEPES, pH 7.4, 1 mM CaCl2, 1 mM MgCl2, 2 mM KCl) containing 140 mM choline chloride to deplete intracellular […] ions. This was subsequently replaced with the uptake medium (basal medium + 140 mM NaCl, 25 μM cytochalasin B, 1 mg/ml BSA) containing either radioactive U-[^14C]-mannose (15,000 cpm/well) or 2-[^3H]-1,5-AG (30,000 cpm/well) and respectively, non-radioactive mannose or 1,5-AG, at the required concentration in the experiment. […]
(§5) Once the uptake medium was added to the cells, the plates were incubated at 37 °C in 5% CO2 during the required time. […] In each experiment, the transport activities were calculated after subtracting a “blank” value, corresponding to the radioactivity in the appropriate control cells (HEK293T cells that were stably or transiently transfected with one of the parent plasmids pEF6/MycHisA, pEF6HisB, pUB82 or pUB83 with no inserted cDNA) that were analyzed in parallel.

[3] = substrate: OC[C@H]1OC[C@H](O)[C@@H](O)[C@@H]1O; test: as above; assay type: cell-based; conditions: pH 7.4, 37.0 °C
From the text: as §3, §1, §4, §5

[4] = substrate: OC[C@H]1OC[C@H](O)[C@@H](O)[C@@H]1O; test: 1,5-AG uptake in HEK293T cells overexpressing SGLT5 variant Arg401His; assay type: cell-based, human; conditions: other: variant Arg401His (rs754390288); pH 7.4; 37.0 °C
Experimental: as §1
(§6) On day two, the radioactive uptake assay could be performed. The cell culture media was removed by aspiration and cells were incubated for 20 min at 37 °C and 5% CO2 with a basal medium (10 mM HEPES, pH 7.4, 1 mM CaCl2, 1 mM MgCl2, 2 mM KCl) containing 140 mM choline chloride to deplete intracellular Na^2+ ions. […]
as §2

[5] = substrate: OC[C@H]1OC[C@H](O)[C@@H](O)[C@@H]1O; test: 1,5-AG uptake in HEK293T cells overexpressing SGLT5 variant Asn96Ile; assay type: cell-based, human; conditions: other: variant Asn96Ile (rs148178887); pH 7.4; 37.0 °C
Experimental: as §1, §6, §2

[6] = substrate: OC[C@H]1OC(O)[C@@H](O)[C@@H](O)[C@@H]1O; test: Radioactive uptake assay (saturation kinetics) in HEK293T cells stably overexpressing human SGLT4; assay type: cell-based; conditions: other: transport of the labelled substrate, Fig. 2B; pH 7.4; 37.0 °C
From the text: as §3
as §1, with “CO2. […]” for “CO2.”
as §5

B1: mouse SGLT4 (Mus musculus) (protein)
chain: MNTELVAMEPGVSRNGVRTETTTNPSLGLHTYDIVVVVIYFVFVLAVGIWSSIRASRGTVGGYFLAGRSMTWWPIGASLMSSNVGSGLFIGLAGTGAAGGLAVGGFEWNATFLLLALGWIFVPVYIAAGVVTMPQYLKKRFGGQRIQVYMSVLSLILYIFTKISTDIFSGALFIQMALGWNLYLSTVILLVVTAVYTIAGGLTAVIYTDALQTVIMVGGALVLMFLGFQEVGWYPGLQQLYRQAIPNTTVPNTTCHLPRPDAFHMLRDPVNGDIPWPGLIFGLTVLATWCWCTDQVIVQRSLAAKNLSHAKGGSVLGGYLKILPMFFIVMPGMISRALYPDEVACVDPDICQRVCGARVGCSNIAYPKLVMALMPVGLRGLMIAVIMAALMSSLTSIFNSSSTLFAIDVWQRFRRQASEQELMVVGRLFVVFLVVISILWIPIIQSSNSGQLFDYIQSITSYLAPPITALFLLAIFCKRVNEPGAFWGLMFGLVVGILRMILEFSYSAPACGEMDRRPAVLKDFHYLYFALLLCGLTAIIIVVISFFTEPIPDDKLARLTWWTRNCAVSDLQKKTSVSVNNTEDDNSPGLAGRPVVEGPAGDEEEANTTQGPEQPGALHRSWGKWLWNWFCGLSGAPQQALSPAEKAVLEQKLTSIEEEPLWRRVCNINAIILLAINIFLWGYFA
notes: expressed in transfected cells; host or cells: HEK293T
**Q.** B1 was tested. Which Km [1] did it give?
**A.** 200 µM

B2: human SGLT5 (Homo sapiens) (protein)
chain: MAANSTSDLHTPGTQLSVADIIVITVYFALNVAVGIWSSCRASRNTVNGYFLAGRDMTWWPIGASLFASSEGSGLFIGLAGSGAAGGLAVAGFEWNATYVLLALAWVFVPIYISSEIVTLPEYIQKRYGGQRIRMYLSVLSLLLSVFTKISLDLYAGALFVHICLGWNFYLSTILTLGITALYTIAGGLAAVIYTDALQTLIMVVGAVILTIKAFDQIGGYGQLEAAYAQAIPSRTIANTTCHLPRTDAMHMFRDPHTGDLPWTGMTFGLTIMATWYWCTDQVIVQRSLSARDLNHAKAGSILASYLKMLPMGLIIMPGMISRALFPDDVGCVVPSECLRACGAEVGCSNIAYPKLVMELMPIGLRGLMIAVMLAALMSSLTSIFNSSSTLFTMDIWRRLRPRSGERELLLVGRLVIVALIGVSVAWIPVLQDSNSGQLFIYMQSVTSSLAPPVTAVFVLGVFWRRANEQGAFWGLIAGLVVGATRLVLEFLNPAPPCGEPDTRPAVLGSIHYLHFAVALFALSGAVVVAGSLLTPPPQSVQIENLTWWTLAQDVPLGTKAGDGQTPQKHAFWARVCGFNAILLMCVNIFFYAYFA
notes: expressed in transfected cells
**Q.** For B2, which Km [2] is on record?
**A.** 1729 ± 568 µM

**Q.** And the Km ([3]; other: hSGLT5 WT, Table 1 experiments)?
**A.** 226 ± 7 µM

**Q.** What about the Km ([3]; other: transport of the labelled substrate, Michaelis-Menten fit, Fig. 2B) of the same protein?
**A.** 167 µM

B3: hSGLT5 Arg401His (Homo sapiens; R401H) (protein)
chain: MAANSTSDLHTPGTQLSVADIIVITVYFALNVAVGIWSSCRASRNTVNGYFLAGRDMTWWPIGASLFASSEGSGLFIGLAGSGAAGGLAVAGFEWNATYVLLALAWVFVPIYISSEIVTLPEYIQKRYGGQRIRMYLSVLSLLLSVFTKISLDLYAGALFVHICLGWNFYLSTILTLGITALYTIAGGLAAVIYTDALQTLIMVVGAVILTIKAFDQIGGYGQLEAAYAQAIPSRTIANTTCHLPRTDAMHMFRDPHTGDLPWTGMTFGLTIMATWYWCTDQVIVQRSLSARDLNHAKAGSILASYLKMLPMGLIIMPGMISRALFPDDVGCVVPSECLRACGAEVGCSNIAYPKLVMELMPIGLRGLMIAVMLAALMSSLTSIFNSSSTLFTMDIWRRLHPRSGERELLLVGRLVIVALIGVSVAWIPVLQDSNSGQLFIYMQSVTSSLAPPVTAVFVLGVFWRRANEQGAFWGLIAGLVVGATRLVLEFLNPAPPCGEPDTRPAVLGSIHYLHFAVALFALSGAVVVAGSLLTPPPQSVQIENLTWWTLAQDVPLGTKAGDGQTPQKHAFWARVCGFNAILLMCVNIFFYAYFA
notes: pUB83-hSGLT5-iso2 as well as the various SGLT5 mutants obtained were used to transduce HEK293T cells; expressed in transfected cells; host or cells: HEK293T, lentiviral transduction (pUB83)
**Q.** How did the Km [4] turn out when B3 was run?
**A.** 331 ± 13 µM

B4: hSGLT5 Asn96Ile (Homo sapiens; N96I) (protein)
chain: MAANSTSDLHTPGTQLSVADIIVITVYFALNVAVGIWSSCRASRNTVNGYFLAGRDMTWWPIGASLFASSEGSGLFIGLAGSGAAGGLAVAGFEWIATYVLLALAWVFVPIYISSEIVTLPEYIQKRYGGQRIRMYLSVLSLLLSVFTKISLDLYAGALFVHICLGWNFYLSTILTLGITALYTIAGGLAAVIYTDALQTLIMVVGAVILTIKAFDQIGGYGQLEAAYAQAIPSRTIANTTCHLPRTDAMHMFRDPHTGDLPWTGMTFGLTIMATWYWCTDQVIVQRSLSARDLNHAKAGSILASYLKMLPMGLIIMPGMISRALFPDDVGCVVPSECLRACGAEVGCSNIAYPKLVMELMPIGLRGLMIAVMLAALMSSLTSIFNSSSTLFTMDIWRRLRPRSGERELLLVGRLVIVALIGVSVAWIPVLQDSNSGQLFIYMQSVTSSLAPPVTAVFVLGVFWRRANEQGAFWGLIAGLVVGATRLVLEFLNPAPPCGEPDTRPAVLGSIHYLHFAVALFALSGAVVVAGSLLTPPPQSVQIENLTWWTLAQDVPLGTKAGDGQTPQKHAFWARVCGFNAILLMCVNIFFYAYFA
notes: as for B3
**Q.** With B4 as the protein, how does the Km [5] read?
**A.** 1565 ± 302 µM

B5: human SGLT4 (Homo sapiens) (protein)
chain: MSKELAAMGPGASGDGVRTETAPHIALDSRVGLHAYDISVVVIYFVFVIAVGIWSSIRASRGTIGGYFLAGRSMSWWPIGASLMSSNVGSGLFIGLAGTGAAGGLAVGGFEWNATWLLLALGWVFVPVYIAAGVVTMPQYLKKRFGGQRIQVYMSVLSLILYIFTKISTDIFSGALFIQMALGWNLYLSTGILLVVTAVYTIAGGLMAVIYTDALQTVIMVGGALVLMFLGFQDVGWYPGLEQRYRQAIPNVTVPNTTCHLPRPDAFHILRDPVSGDIPWPGLIFGLTVLATWCWCTDQVIVQRSLSAKSLSHAKGGSVLGGYLKILPMFFIVMPGMISRALFPDEVGCVDPDVCQRICGARVGCSNIAYPKLVMALMPVGLRGLMIAVIMAALMSSLTSIFNSSSTLFTIDVWQRFRRKSTEQELMVVGRVFVVFLVVISILWIPIIQSSNSGQLFDYIQAVTSYLAPPITALFLLAIFCKRVTEPGAFWGLVFGLGVGLLRMILEFSYPAPACGEVDRRPAVLKDFHYLYFAILLCGLTAIVIVIVSLCTTPIPEEQLTRLTWWTRNCPLSELEKEAHESTPEISERPAGECPAGGGAAENSSLGQEQPEAPSRSWGKLLWSWFCGLSGTPEQALSPAEKAALEQKLTSIEEEPLWRHVCNINAVLLLAINIFLWGYFA
notes: as for B2
**Q.** Which Km [6] does the source give for B5 here?
**A.** 81 ± 8 µM
